For one test, the target named is MUC1-ST (4). The test is described as follows: SPR; Biacore 2000; MUC1 TRD models 2-4 immobilised on a CM5 chip by maleimide coupling through a C-terminal cysteine; SN-131 Fab injected; bivalent binding model.
The target in a further test is MUC1 TRD-Tn (3). The description is as above.

B1: SN-131 Fab (Fab, V domains shown)
VH: QVQLQQSGAELARPGASVKLSCKASGYTFTNYGLSWVKQRTGQGLEWIGENHPGSGIIYHNEKFRGKATLTADKSSSTAYVQLSSLTSEDSAVYFCARSSGTRGFAYWGQGTLVTVSA
VL: DVLMTQTPLSLPVSLGDQASISCRSSQSIVHSNGNTYLEWYLQKPGQSPKLLIYKVSNRFSGVPDRFSGSGSGTDFTLKISRVEAEDLGVYYCFQGSHGPWTFGGGTKLEIK
With B1, the results for the Kd in the test with MUC1-ST (4) and with MUC1 TRD-Tn (3) were 1.58 nM and 3.78 nM, respectively.

For the origin of these results see paper PMC10398351, “Structural and molecular insight into antibody recognition of dynamic neoepitopes in membrane tethered MUC1 of pancreatic cancer cells and secreted exosomes” (RSC Chemical Biology, 2023).
